Laboratory results published in the supplement of paper PMC12042874.
± gives the uncertainty stated by the source.

assay: amyloid nucleation score (Sup35N fusion, yeast selection) (log enrichment); library NNK3; higher = more nucleation; inactive = no reads after selection
Method in brief: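 Plasmid inserts were Illumina-sequenced at input and output from psi-negative yeast expressing Sup35N fused to peptides of 20 random codons. The yeast were induced with 100 μM copper sulfate for 24 hours and grown 7 days at 30°C on medium lacking adenine and uracil, and sequences with under 100 input reads were excluded. Nucleation score is the DiMSum log enrichment of output over input reads, centred on the mode score of non-aggregating sequences.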

| Substance | amyloid nucleation score |
| --- | --- |
| SSLMRIHLPLVYQ | inactive |
| RSTTTMEYWFSCAVYSPKSV | 0.682 ± 0.12 |
| LLIKAAFGKMVRCKFRLIEW | -0.454 ± 1.4 |
| ISSPNEVWSVIVEWPRIYC | inactive |
| HLVRCNDRSNLRESGPS | inactive |
| FDGFLNFVITSRSNVF | inactive |
| DKKVSISRVSR | inactive |
| FKTCPKCSSSCCIFICPCSV | 0.753 ± 0.25 |
| WCSGLPGLNRWSSTIPICCY | inactive |
| DFMRVGVTRRALRVLSKSSD | inactive |
| SFPWFDTYSLDVSWHISWRS | inactive |
| SIMTSFRPFPTWRCG | -0.563 ± 0.57 |
| NTWISMVCLLLLSDSNHTVV | 1.84 ± 0.082 |
| TMIFMLVI | inactive |
| ICWMRDTTVVGFRWV | -0.07 ± 0.96 |
| TQDRYAISIRLVSTQLKLMS | inactive |
| SFSELVSAASKTQTVCRRKC | inactive |
| SPHLLDWSKIAFLVSHMPHS | inactive |
| VFLACNYFILSRNDLKWGYP | 2.56 ± 0.06 |
| NMLCTSL | 1.21 ± 0.11 |
| TTSLMSKVFY | inactive |
| CIILAGYISLLRLDNDSGWV | inactive |
| ICNIYCCCQG | 2.6 ± 0.069 |
| PNALDRIYSG | inactive |
| YVDMP | 0.089 ± 0.87 |
| SNKSHVCYFSIEFVLISGLS | inactive |
| NNNISFEEWFPS | inactive |

| Substance | amyloid nucleation score |
| --- | --- |
| RLHLAPTNCREVNWPTLWLA | -0.565 ± 1.8 |
| RLNYWMTDDGCGRSCDTRVE | inactive |
| GCKRVVTTV | -0.606 ± 0.93 |
| SIFCGCLVLLTGNYLLICIS | 1.13 ± 0.17 |
| LATHSICVKGNSRVSELISA | inactive |
| DYKRSMGFGWLTFVPYLAGN | inactive |
| CNCVRWWRSSSTTNG | inactive |
| WLLHLIYD | inactive |
| FVNVKFQTLCNYIWCTSPYE | 2.9 ± 0.06 |
| DVNLRTSHYAF | inactive |
| DAIEKD | inactive |
| CVTCLARLHDGPEGIVHLCT | inactive |
| LCPHPPFLCLVQQRFTTGSG | -0.123 ± 0.33 |
| AFGYKFGSANEAVRMLLSLV | inactive |
| LPGNLYFYVTGTCDNYLTVW | inactive |
| YVVVLMSLHWRNWGALRRTC | inactive |
| VLDFRRPRNISRS | inactive |
| HSRMWVTGLVSCVSGYMQVV | inactive |
| SCIFPILGVFADDFTMTFTW | inactive |
| GFIEW | inactive |
| NPWPAWPGTSCIRDLQTSIR | inactive |
| LIDWTDNRYPYRHHHFCPNA | inactive |
| FKPWLYFGRPMAQLRDDCQV | inactive |
| VLLARIDAVFITVLR | 1.25 ± 0.12 |
| LNVMFSFRYPWFSVFVLMIV | inactive |
| CIFLDGVAPFWMGESRWRSG | inactive |
| FHNFVRHIYAGGNRP | inactive |

| Substance | amyloid nucleation score |
| --- | --- |
| GNSIALSE | inactive |
| YTFLSVAFLD | inactive |
| NLVAMVYSLLSSNWKEVISK | -0.406 ± 0.8 |
| RHNVRCYCLGLMPNAPVDKL | inactive |
| DRLHSCYCCTIVHRFYRNYD | inactive |
| RVYVLLLNGQPFCRKYRL | inactive |
| YVSSRNRHYGSPYLGVCVFK | inactive |
| VLNDFMCDFGSWPRVIVIRT | inactive |
| PSDDYGHLVWLTICCNCLD | 1.6 ± 0.079 |
| DLAYIGVFLIMFCFTSVDSM | -0.225 ± 0.58 |
| WYNNYFRQVPSCVKDGRSHP | inactive |
| DTVMGSCDEFYLFASRHLCL | inactive |
| GSGIINDMGFRWIFFMWVMA | inactive |
| DCFSKRWLHLFANYSSVSTN | inactive |
| MLLCDKFVVCTCIGVQVYSY | 2.19 ± 0.087 |
| CLRRVPLQRSSFLSVNLKLM | inactive |
| QGNCLFVKVG | inactive |
| SVCMVFYPVEREKEDQKSVE | inactive |
| YIIFLTMAHF | 0.656 ± 0.29 |
| PFRFVKNLCGATG | inactive |
| MKGCWFWKVIENFHIKSHCR | inactive |
| SRALDGYKVPRFWIVRARGR | inactive |
| QINWTGHLSMSFICFLNSRV | inactive |
| NLLRNAVFIYCKHLNLFDAM | 0.815 ± 0.12 |
| THYEVWGLT | inactive |
| FNERIRTNLFDSWTMWGMCF | inactive |
